Test results: the DeepSol protein solubility set

Test: soluble on expression in E. coli; label from the status in PepcDB or PDB records

| Sequence | soluble on expression in E. coli |
| --- | --- |
| MSTPIIPWMGGKRRLADRLIPLFPPHECYVEVFAGGAALYFMRPQAAPVEVLNDINGDLVNLYRVVQNHLEEFVRQFKWALSSRQVFEWQKMTRPETLTDIQRAARFFYLQHHAFAGKVSGQTFGTATTGPAINLLRIEENLSAAWQRLSGTYVENLPWLECAERYDRPQTFHYMDPPYWQTAGYGVDYPFENYERMADFMRTCKGKVMVSINDHPDIRRVFEEFHFETVDIRYTSSNQRRGRTDVVGELVIMNWEP | not soluble |
| PKTQRGIYHNLKESEYVASNTDVTFFFSSELYLNKFLDGYQEYRKKFNKKIERVAVTPWNMDMLADITFYSEVEKRGFHAWLKGDNATWREVHVYALRIMTKPNTLDWSRIQKPRLRERRKSM | soluble |
| MDLIHEKVFVNRYHYDVRNHEWEKENGVPKTNVEVTFQLHHKDKEANNTSVVAVLQFMIVRDEFVISGIVSQMNHIQNRIVNNPKDFSQEEAEYLAAPLLDTLQRLTYEVTEIALDRPGINLEF | not soluble |
| MIPTERRQIILDMVAEKGIVSIAELTERMHVSHMTIRRDLQKLEQQGAVIQVSGGVQSSTRVAHEPSHQIKTELATPQKAAIGKLAASLVQPESCIYLDAGTTTLAIARQLVTMNKLTVVTNDFVIADYLMDNSNCTIIHTGGAVCRENRSCVGEAAATLLRGLMIDQAFISASSWSVRGISTPAEDKVTVKRAVASASRQKILVCDATKYGQVATWLALPLAEFNQIVTDDGLPESAIRALAKVDISLLMAKQ | not soluble |
| MGSDKIHHHHHHMQSLPHDVVGYARDYRDGYVSVRHRHPRHQLIYAISGLMMAETDAMSHAIPPGYGLIVPAQQPHEIRMIGAVRLQSLYVRAGLPRADALARCRLVTISPLLAQLIAALCEMANPWPMPPRALHLSQLILIELLAAPVSPLALPYPTDPRLRRVCDGLIATPASPRSLDDWAAEAGMSRRTFSRHFQLETGLSFGKWAQRLRCQAALRGLAKGRPAARVARELGYANAYTMAAMMRRMT | not soluble |
| MSLCVFLTSEVNMGLFNFVKDAGEKLWDAVTANHDKDDQAKKVQEHLNKTGIPDTDKVNVQIADGKATVTGDGLSQEAKEKILVAVGNIAGISSVDDQVKTTTPAAESQFYTVKSGDTLSAISKQVYGNANLYNKIFEANKPMLKSPEKIYPGQVLRIPEEGHHHHHH | not soluble |
| MSLEAEGDEIYEDLMRSEPVSMPPKMTEYDKRCCCLREIQQTEEKYTDTLGSIQQHFLKPLQRFLKPQDIEIIFINIEDLLRVHTHFLKEMKEALGTPGAANLYQVFIKYKERFLVYGRYCSQVESASKHLDRVAAAREDVQMKLEECSQRANNGRFTLRDLLMVPMQRVLKYHLLLQELVKHTQEAMEKENLRLALDAMRDLAQCVNEVKRDEGHHHHHH | soluble |
| MGSDKIHHHHHHMVQAWYMDESTADPRKPHRAQPDRPVSLEQLRTLGVLYWKLDADKYENDPELEKIRKMRNYSWMDIITICKDTLPNYEEKIKMFFEEHLHLDEEIRYILEGSGYFDVRDKEDKWIRISMEKGDMITLPAGIYHRFTLDEKNYVKAMRLFVGEPVWTPYNRPADHFDARVQYMSFLEGTA | soluble |
| MPAALLISGPCKICDLPAHGNHFGVLSCRACAAFFRRASRSPRFQDKACEYGDCRIFDAGAYRCKICRLKKCYKVGMDASKFQKDRDLISSSNAYLKRTKVYAPQSLANFLGRPEFIISFEPEKASPFKTVIDVTDLVHKAAEIFQEDLANSPMPYKYSNSLEKLTLEMEDLRLRSSNHKVKIVRNIGKAESLVFFEQMFLATANWYARLPDFTSLDLRVKLEILKSTWMLWIRLNKLAETAQNQRIKEMGANIFMCSENTCLNVQDINVDWSWCTNYGAEQMQAFLMPNIDKHWRQPVEDLVKLNPTDMELNFMLIQLCLNDAGKKFQGRVLEATDKLLQINADNLHNYYTKKLNMPSYSGRLTKLMKINQIVEEDVRERKEKAKIVEVFDLFSIVYSHPEMFEGT | not soluble |
| LGTQMGIQTPIRIEAFDNSNIQGVDPVSAMVTFVDGKPDKKNYRKYKIKTVKGPDDYKSMREVVRRRYSRVLNEGLPLPDLIIVDGGKGHMNGVIDVLQNELGLDIPVAGLQKNDKHQTSELLYGASAEIVPLKKNSQAFYLLHRIQDEVHRFAI | not soluble |
| MASTELSLKRTLTDILEDELYHTNPGHSQFTSHYQNYHPNASITPYKLVNKNKENNTFTWNHSLQHQNESSAASIPPQQTYHFPIFNKYADPTLTTTTSFTTSEATANDRQINNVHLIPNEIKGASETPLQKTVNLKNIMKVSDPYVPTRNTFNYDVKISNDFFDNGDNLYGNDEEVLFYEDNYNPKMQWSLQDNSAAINNEDARAIFNNEFDSDDDDISDDEEDEIEENCLQQEQHQEEPLLSLDVTPISMFGSDQKTGRAKSSSHLFNEYSYVDSNMDSISSVVSEDLLDERGHEKIEDEDEDNDLDEDDIYDISLLKNRRKQSFVLNKNTIDFERFPSPSTSANVPSTATTGKRKPAKSSSNRSCVSNSNENGTLERIKKPTSAVVSSNASRRKLINYTKKHLSSHSSTNSNSKPSTASPSAHTSSSDGNNEIFTCQIMNLITNEPCGAQFSRSYDLTRHQNTIHAKRKIVFRCSECIKILGSEGYQKTFSRLDALTRHIKSKHEDLSLEQRQEVTKFAKANIGYVMG | not soluble |
| MGSDKIHHHHHHMPKSKSQKNKLRPRDSKGRFTPLAKAKRTVVSRSRSRSRSASRGARQSRSVGRPMSRRNSVRSISTHTAKSPSLVLVISGSPSPRRRRPSTRRSSSRRSVVRSVSRGSKSRRSSSRGSVYGRTGRSRSSKRSRSRSRPRTRSGSRSSSRSRSGSRRSSRRRSRRRSSSKARGRRASTAKKTPAKRRSRSRSQQKVKRSMSRKG | not soluble |
| MLEQIRNTHPLVYQNFSALPDGEKHLRSILAIDRYWEKLDLPVPDVILAGSRLPVDACVEEACDILYAGGTLGLLHAAVMSKKYGRKVLVIDRAEPGRTTRDWNISRGELLRLADTGVFTSEELDSTIVRMYKTGWVEFHAPAERRKRLYMDEVLDCAVDADRLLGMACKKVLAGGGSKVLGHTSFVCCYQFPDHLVVQVEELSGKPRYFRTQVLVDAMGIVSPVAMQLNRGRPQTHVCPTVGTIASGFENADFEVGEILASTEDAEVSGKRGRQLIWEGFPAKGDEYITYLFFYDKVDSPNDKSLLGLFEAYFRKLPEYKKPGPNFTIHRPVFGIIPAYFHDGAGCTRVVSGERIALLGDAASLASPLTFCGFGSVVRNLDRMTSGLDRAMREGRLGAAELANISAYEPNVASMATLMKYMCYDPETDEPGFVNEMMNEVMIVLDELPQRYRQAMFRDEMKVEELVTVMLKVAWRYPKILKATWNKLGVGGSVGFVKNLAGWAISQNEKRGLEHHHHHH | not soluble |
| PTIFEERHLKYISQLGKGNFGSVELCRYDPLGDNTGALVAVKQLQHSGPDQQRDFQREIQILKALHSDFIVKYRGVSYGPGRPELRLVMEYLPSGCLRDFLQRHRARLDASRLLLYSSQICKGMEYLGSRRCVHRDLAARNILVESEAHVKIADFGLAKLLPLDKDYYVVREPGQSPIFWYAPESLSDNIFSRQSDVWSFGVVLYELFTYCDKSCSPSAEFLRMMGCERDVPALCRLLELLEEGQRLPAPPACPAEVHELMKLCWAPSPQDRPSFSALGPQLDMLWSGSR | soluble |
| MGSDKIHHHHHHMPRIKDGFKGERAIVLPAFLIEELKQDPLGSELYITDIGYYPHAYFHYRKRDTEEVTEFILIYCMEGEGWFELDKHQYAVTANQFFILPEHQAHAYGSNEENPWTIYWIHFNGTKAAFFSAGFDRPKSITPQEDSRIKERLVLFEEIYSSISFGYSKNYMLYATTSLFHFLGSMKFIGEYRDCGSMRNSYRNKDVVQIAIHFMQENLSKTIRLADIAAEVNLSVSYFSNLFEEKTGSSPLRYLTYLRIQEACHYLDFTNLKINQISPLVGYEDSLYFSRLFTKTMGVPPSAYKEKKKG | not soluble |
| MGSDKIHHHHHHMMKTVNELIKDINSLTSHLHEKDFLLTWEQTPDELKQVLDVAAALKALRAENISTKVFNSGLGISVFRDNSTRTRFSYASALNLLGLAQQDLDEGKSQIAHGETVRETANMISFCADAIGIRDDMYLGAGNAYMREVGAALDDGYKQGVLPQRPALVNLQCDIDHPTQSMADLAWLREHFGSLENLKGKKIAMTWAYSPSYGKPLSVPQGIIGLMTRFGMDVTLAHPEGYDLIPDVVEVAKNNAKASGGSFRQVTSMEEAFKDADIVYPKSWAPYKVMEERTELLRANDHEGLKALEKQCLAQNAQHKDWHCTEEMMELTRDGEALYMHCLPADISGVSCKEGEVTEGVFEKYRIATYKEASWKPYIIAAMILSRKYAKPGALLEQLLKEAQERVK | not soluble |
| MKILFVAAEGAPFSKTGGLGDVIGALPKSLVKAGHEVAVILPYYDMVEAKFGNQIEDVLHFEVSVGWRRQYCGIKKTVLNGVTFYFIDNQYYFFRGHVYGDFDDGERFAFFQLAAIEAMERIDFIPDLLHVHDYHTAMIPFLLKEKYRWIQAYEDIETVLTIHNLEFQGQFSEGMLGDLFGVGFERYADGTLRWNNCLNWMKAGILYANRVSTVSPSYAHEIMTSQFGCNLDQILKMESGKVSGIVNGIDADLYNPQTDALLDYHFNQEDLSGKAKNKAKLQERVGLPVRADVPLVGIVSRLTRQKGFDVVVESLHHILQEDVQIVLLGTGDPAFEGAFSWFAQIYPDKLSTNITFDVKLAQEIYAACDLFLMPSRFEPCGLSQMMAMRYGTLPLVHEVGGLRDTVRAFNPIEGSGTGFSFDNLSPYWLNWTFQTALDLYRNHPDIWRNLQKQAMESDFSWDTACKSYLDLYHSLVN | not soluble |
| MSLEQGIAARKAEAESNASTKGESPDYPGQQVIWRLIQEAGESLRDELRTLAFTLHDHPEEAFEEVFATEEITKLLQNHGFEVQSGVYGVKTALETSFETPGYDPAQHPSIAILAEYDALPEIGHACGHNIIAAAGVGAFLAVTNMIKTAEVKGVDHLDFEGRIVLLGTPAEEGHSGKEYMIRNGAFDGIDASIMMHPFGFDLAEHVWVGRRTMTATFHGVSAHASSQPFMGKNALDAASLAYQGFGVLRQQMPPSDRLHAIITEGGNRPSIIPDTATMSLYVRSLLPEALKDISKRVDDVLDGAALMAGVGVEKQWDVHPASLPVRNNHVLARRWAKTQNLRGRTALSEGILPDTLAASTDFGNVSHLVPGIHPMVKISPENVALHTKEFAAYARTEEAIDAAVDAAIGLAQVAVDALADPQMLIDATLEFTNSGDVLKVGDYLAEGHHHHHH | soluble |
| MAKLLITGGCGFLGSNLASFALSQGIDLIVFDNLSRKGATDNLHWLSSLGNFEFVHGDIRNKNDVTRLITKYMPDSCFHLAGQVAMTTSIDNPCMDFEINVGGTLNLLEAVRQYNSNCNIIYSSTNKVYGDLEQYKYNETETRYTCVDKPNGYDESTQLDFHSPYGCSKGAADQYMLDYARIFGLNTVVFRHSSMYGGRQFATYDQGWVGWFCQKAVEIKNGINKPFTISGNGKQVRDVLHAEDMISLYFTALANVSKIRGNAFNIGGTIVNSLSLLELFKLLEDYCNIDMRFTNLPVRESDQRVFVADIKKITNAIDWSPKVSAKDGVQKMYDWTSSILEHHHHHH | soluble |
| MGSDKIHHHHHHMRGTIMDDLNDLYYFVKVVEHGGFTQAGRALGVPKSTLSRRIAALEAQYDVRLLQRTTRHFTVTETGREFYDRCLGVLVEAEAAREVIERKHAEPQGIVSLSCPTALLEYRVSGLVARFMAIHPKVQVHLEATNRRVDLLSEGIDLALRVRFPPLEDSGLVMRVLGDSPQRLVAAPHLLGGRDLPTSPDELAGVPSVDWGPPRHHLWQLVGPQGVEAQLRHHPRFITDDMHALRDAALHGVGIAQLPCMVVEDDLRDGTLVDVLPGWVPKGGVIHAVFPSRRGLLPRVRLLIDFLAAHIQKD | not soluble |
